Results from paper PMC11169542, “A probe for NIR-II imaging and multimodal analysis of early Alzheimer’s disease by targeting CTGF” (Nature Communications, 2024).
Ends that are not written are not given here.

Assays:
[1] = Effect of DGC on hematology of mice; type: in vivo, C57BL/6J mice; settings: for Mean hemoglobin content of red blood cells (MCH): in pg (unit assumed)
Excerpt: In order to clarify the NIR-II signal in AD brains when in vivo imaging is arisen from the DGC probe that bound to CTGF, we selected 3-month-old APP/PS1 mice representing early-stage AD and the age-matched WT mice as control to performed ex vivo multimodal analysis of the brain sections. […] To exclude the influence of vascular retention, we emptied the cerebral vessels by cardiac perfusion and performed ex vivo imaging of the brains. […] For brain sections made from AD mice after tail vein injection of DGC, the red fluorescence observation and LA-ICP-TOF-MS of DGC, as well as a POD-like catalysis test were performed. […] In Fig. 6c, the colocalization of DGC (red fluorescence) and CTGF (green fluorescence) on the ex vivo brain sections confirmed the specificity of DGC targeting CTGF in vivo. To further identify the cellular target of DGC in the brain of APP/PS1 mice, we carried out immunofluorescence staining on the ex vivo brain sections after tail vein injection of DGC where cell-specific fluorescent antibodies for microglia (Iba 1), neurons (NeuN), vascular endothelial cell (CD31) and reactive astrocytes (GFAP) were applied. In Fig. 6d, […] co-localizes with GFAP-positive active astrocytes and CD31-positive microvessels, but not with neurons or microglia. […] The biosafety of DGC in C57BL/6J mice under the NIR-II imaging condition was evaluated by blood tests (blood cells and biochemical analysis) and organ pathological analysis (H&E staining).

[2] = target: T1, CTGF (Homo sapiens, UniProt P29279); assay: DAB chromogenic imaging of DGC-labelled human brain sections; design: The brain tissue samples of autopsy-confirmed AD patients were obtained from the Chinese Brain Bank Center; from tissue; host or cells: postmortem human brain sections (hippocampus, cortex) of AD patients and healthy controls; settings: 200 μM DGC 4 °C overnight + DAB
T1 sequence (P29279 27-349): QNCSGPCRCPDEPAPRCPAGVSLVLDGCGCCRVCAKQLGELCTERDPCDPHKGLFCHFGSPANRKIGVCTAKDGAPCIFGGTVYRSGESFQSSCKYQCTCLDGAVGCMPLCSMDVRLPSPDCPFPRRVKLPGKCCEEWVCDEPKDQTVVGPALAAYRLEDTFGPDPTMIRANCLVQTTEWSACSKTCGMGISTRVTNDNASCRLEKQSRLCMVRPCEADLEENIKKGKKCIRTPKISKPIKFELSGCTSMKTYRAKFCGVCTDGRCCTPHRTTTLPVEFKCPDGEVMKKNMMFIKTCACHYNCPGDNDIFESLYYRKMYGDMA
Protocol: The brain tissue samples of autopsy-confirmed AD patients were obtained from the Chinese Brain Bank Center (CBBC) and Human Brain Bank, Central South University Xiangya School of Medicine. First, the brain sections were air-dried for 15 min at room temperature, followed by immersion in water. 5% H2O2 was applied for 15 min at room temperature. The sections were washed three times with PBS for 5 min each time. Then, tissue repair was performed using trypsin at a temperature of 37 °C for 5 min and washed three times with PBS. We chose 10% sheep serum to block for a duration of 20 min at 37°. Primary antibodies (CTGF antibody and Aβ antibody) were added to the sections overnight at 4 °C. FITC-labeled Goat Anti-Rabbit IgG (H + L) (1: dilution 1:200, Bioss, Cat#bs-0370R-FITC) was applied and incubated at 37 °C for 20 min in darkness. Subsequent washing steps involved rinsing the sections three times with PBS, each time lasting for 5 min while avoiding exposure to light. DAPI staining was performed, taking care to store the samples away from light during the 5-min procedure. Then observed by the CLSM system. Then, we chose the optimal incubation concentration of DGC (200 μM) was used to determine the conditions using DAB Horseradish Peroxidase Color Development Kit. After the brain sections were co-stained by DGC (200 μM) at 4 °C overnight, a DAB chromogenic agent was added to the brain tissue sections to explore whether DGC can catalyze DAB solutions to produce insoluble brown precipitate to attach the brain tissue sections with an optical microscope. Finally, the brain tissue sections were digested with aqua regia to measure the Au content by the ICP-MS system.

[3] = DGC group, mean of 3 mice, in 10^9/L (unit assumed)
[4] = DGC group, mean of 3 mice, in % (unit assumed)
[5] = DGC group, mean of 3 mice, in fL (unit assumed)
[6] = DGC group, mice 1, in fL (unit assumed)
[7] = DGC group, mice 2, in fL (unit assumed)
[8] = DGC group, mice 3, in fL (unit assumed)

Substance: DGC: CTGF-targeting peptide-coated gold nanocluster: one Au26 gold nanocluster coated by eight DAG cyclic peptides, NIR-II and red fluorescence (CDAGRKQKC; also: cyclic peptide, ring not given here, eight peptides on one Au26 nanocluster via Cys Au-S bonds)
- Basophil granulocyte count (Bas#) ([1]; C57BL/6J mice, 20 mg/kg DGC, n = 3, normal range 0.00 - 0.12): 0.02 ± 0.01 109/L
- Eosinophil granulocyte count (Eos#) ([1]; C57BL/6J mice, 20 mg/kg DGC, n = 3, normal range 0.00 - 0.51): 0.04 ± 0.02 109/L
- Percentage of Basophil granulocyte (Bas%) ([1]; C57BL/6J mice, 20 mg/kg DGC, n = 3, normal range 0.0 - 1.5): 0.27 ± 0.06%
- Percentage of eosinophil granulocyte (Eos%) ([1]; C57BL/6J mice, 20 mg/kg DGC, n = 3, normal range 0.0 - 7.5): 0.47 ± 0.23%
- Monocytes count (Mon#) ([1]; C57BL/6J mice, 20 mg/kg DGC, n = 3, normal range 0.04 - 1.40): 0.25 ± 0.1 109/L
- Percentage of monocytes (Mon%) ([1]; C57BL/6J mice, 20 mg/kg DGC, n = 3, normal range 0.9 - 18.0): 3.07 ± 0.84%
- Percentage of neutrophil (Neu%) ([1]; C57BL/6J mice, 20 mg/kg DGC, n = 3, normal range 6.5 - 50.0): 13.2 ± 1.31%
- Percentage of lymphocyte (Lym%) ([1]; C57BL/6J mice, 20 mg/kg DGC, n = 3, normal range 40.0 - 92.0): 83 ± 2.08%
- Mean concentration of red blood cell hemoglobin (MCHC) ([1]; DGC group, mean of 3 mice): 315.67 ± 5.69
- Width of platelet distribution (PDW) ([1]; DGC group, mean of 3 mice): 15.23 ± 0.25
- Basophil granulocyte count (Bas#) [1, 3]: 0.02 ± 0.01
- Eosinophil granulocyte count (Eos#) [1, 3]: 0.04 ± 0.02
- Lymphocyte count (Lym#) [1, 3]: 6.65 ± 0.78
- Monocytes count (Mon#) [1, 3]: 0.25 ± 0.1
- Neutrophil count (Neu#) [1, 3]: 1.07 ± 0.24
- Platelet count (PLT) [1, 3]: 1228.67 ± 179.01
- White blood cell count (WBC) [1, 3]: 8.03 ± 1.12
- Red blood cell count (RBC) ([1]; DGC group, mean of 3 mice, in 10^12/L (unit assumed)): 10.16 ± 0.42
- Coefficient of variation of red blood cell distribution width (RDW-CV) [1, 4]: 13.13 ± 1
- Hematocrit (HCT) [1, 4]: 51.2 ± 1.93
- Mean corpuscular volume (MCV) [1, 5]: 50.4 ± 0.17
- Mean platelet volume (MPV) [1, 5]: 5.53 ± 0.15
- Standard deviation of red blood cell distribution width (RDW-SD) [1, 5]: 27.8 ± 2.1
- Hemoglobin (HGB) ([1]; DGC group, mean of 3 mice, in g/L (unit assumed)): 161.67 ± 8.02
- Mean hemoglobin content of red blood cells (MCH) ([1]; DGC group, mean of 3 mice): 15.93 ± 0.25
- Mean concentration of red blood cell hemoglobin (MCHC) ([1]; DGC group, mice 1): 311
- Mean corpuscular volume (MCV) [1, 6]: 50.5
- Mean platelet volume (MPV) [1, 6]: 5.7
- Mean hemoglobin content of red blood cells (MCH) ([1]; DGC group, mice 1): 15.7
- Mean concentration of red blood cell hemoglobin (MCHC) ([1]; DGC group, mice 2): 322
- Mean corpuscular volume (MCV) [1, 7]: 50.2
- Mean platelet volume (MPV) [1, 7]: 5.4
- Mean hemoglobin content of red blood cells (MCH) ([1]; DGC group, mice 2): 16.2
- Mean concentration of red blood cell hemoglobin (MCHC) ([1]; DGC group, mice 3): 314
- Mean corpuscular volume (MCV) [1, 8]: 50.5
- Mean platelet volume (MPV) [1, 8]: 5.5
- Mean hemoglobin content of red blood cells (MCH) ([1]; DGC group, mice 3): 15.9
- DAB chromogenic intensity ([2]; AD 1, Cortex section): 0.04756
- DAB chromogenic intensity ([2]; AD 1, Hippocampus section): 0.01899
- DAB chromogenic intensity ([2]; AD 2, Cortex section): 0.04585
- DAB chromogenic intensity ([2]; AD 2, Hippocampus section): 0.0257
- DAB chromogenic intensity ([2]; HC 1, Cortex section): 0.0065
- DAB chromogenic intensity ([2]; HC 1, Hippocampus section): 0.00154
- DAB chromogenic intensity ([2]; HC 2, Cortex section): 0.008159
- DAB chromogenic intensity ([2]; HC 2, Hippocampus section): 0.005
